Experiment [1] has as its target T1, Human TNFR2 recombinant protein (Sino 10417-H08H) (human, UniProt P20333 23-257).
T1 construct: also called hTNFR2 (His tag)
T1 sequence (looked up): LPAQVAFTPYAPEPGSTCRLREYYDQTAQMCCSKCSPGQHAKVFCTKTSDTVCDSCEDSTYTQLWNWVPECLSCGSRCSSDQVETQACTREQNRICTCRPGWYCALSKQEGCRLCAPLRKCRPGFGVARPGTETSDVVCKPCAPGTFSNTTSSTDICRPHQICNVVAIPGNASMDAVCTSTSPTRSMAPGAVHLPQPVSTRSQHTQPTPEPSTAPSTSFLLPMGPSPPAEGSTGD
Nature of the experiment: ELISA, coated antigen 0.5 ug/ml, antibody 12 ng/ml.

For experiment [2], the target named is T2, cynomolgus TNFR2 (Sino 90102-C08H) (cynomolgus, UniProt A0A2K5VET2 132-366).
T2 construct: also called CynoTNFR2 (His tag)
T2 sequence: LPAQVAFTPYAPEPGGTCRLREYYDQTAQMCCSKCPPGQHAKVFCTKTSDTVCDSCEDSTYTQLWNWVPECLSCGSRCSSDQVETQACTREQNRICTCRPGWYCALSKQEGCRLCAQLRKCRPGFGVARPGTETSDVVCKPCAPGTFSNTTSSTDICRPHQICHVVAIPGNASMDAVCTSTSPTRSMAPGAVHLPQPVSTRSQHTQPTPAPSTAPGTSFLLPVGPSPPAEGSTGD
The experiment is described as follows: ELISA, coated antigen 0.5 ug/ml, antibody 12 ng/ml. A general note: An ELISA detects its analyte on a solid surface through an enzyme-linked reagent.

Experiment [3] has as its target T3, human TNFR2 (Novoprotein, Catalog No. C830) (human, UniProt P20333 23-257, limits assumed).
T3 construct: construct not described; also called TNFR2 protein
T3 sequence (looked up): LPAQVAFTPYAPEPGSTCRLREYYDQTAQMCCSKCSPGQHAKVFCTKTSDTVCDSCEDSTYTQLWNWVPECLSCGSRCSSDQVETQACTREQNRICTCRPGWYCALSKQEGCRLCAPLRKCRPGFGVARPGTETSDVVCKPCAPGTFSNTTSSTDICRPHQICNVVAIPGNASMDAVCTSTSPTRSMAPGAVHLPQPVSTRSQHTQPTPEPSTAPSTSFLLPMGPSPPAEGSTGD
Nature of the experiment: blocking ELISA, TNFα-biotin on coated human TNFR2, antibody 20 nM. As to the method: (§1) A microplate was pre-coated with 100 μl/well of 1 μg/ml human TNFR2 (Novoprotein, Catalog No. C830). […] After washing the plate, a Streptavidin-HRP working solution (1:10000 dilution) was added at 100 μl/well, and incubated with shaking at room temperature for 40 min. The plate was washed again, the HRP substrate TMB was added for color development, the termination solution was added to terminate the reaction, and the microplate reader was used to read the absorption value.

The target in experiment [4] is T4, human TNFR2 on the cell surface (CHO-TNFR2 cells; human Treg cells) (human, UniProt P20333 23-461).
T4 construct: whole, on cells; The assay field of each row says which cells; also called TNFR2-CHO cell; TNFR2 on Treg cells
T4 sequence (looked up): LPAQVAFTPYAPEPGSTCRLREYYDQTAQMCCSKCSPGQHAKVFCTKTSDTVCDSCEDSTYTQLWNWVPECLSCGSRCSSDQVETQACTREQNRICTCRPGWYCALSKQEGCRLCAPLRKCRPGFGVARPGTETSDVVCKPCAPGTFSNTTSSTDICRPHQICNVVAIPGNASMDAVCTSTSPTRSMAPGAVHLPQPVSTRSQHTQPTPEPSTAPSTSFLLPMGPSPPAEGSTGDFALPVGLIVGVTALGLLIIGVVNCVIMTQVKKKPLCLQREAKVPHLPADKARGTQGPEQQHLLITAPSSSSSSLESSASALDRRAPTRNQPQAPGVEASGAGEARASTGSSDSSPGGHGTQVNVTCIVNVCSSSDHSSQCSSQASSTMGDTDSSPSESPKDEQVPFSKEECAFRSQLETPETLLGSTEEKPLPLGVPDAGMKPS
Nature of the experiment: flow cytometry, blocking of TNFα-biotin on CHO-TNFR2 cells. In general terms: In flow cytometry, cells or beads pass a laser one at a time.

The target in experiment [5] is T3, human TNFR2 (Novoprotein, Catalog No. …). Nature of the experiment: blocking ELISA, TNFα-biotin on coated human TNFR2; 002# OD / antibody OD x 100. As to the method: as §1
Experiment [6] addresses T4, human TNFR2 on the cell surface …. Nature of the experiment: flow cytometry, blocking of TNFα-biotin on CHO-TNFR2 cells. As for the experimental part:
(§2) CHO cells that stably overexpressed human TNFR2 were used for experiments. The cells were resuscitated and passaged until in good state, and the expression level of human TNFR2 on the cells was assessed by FACS. Compared to the isotype control, the assay could be carried out when the fold change of mean fluorescence intensity (MFI) was more than 100 times.
(§3) CHO-TNFR2 cells were digested, washed twice with DPBS and stained with Live/Dead (L/D) at room temperature for 20 min, and then seeded at 1×10⁵ cells/50 μl/well. […] The diluted antibodies were added 50 μl/well into wells pre-seeded with cells, and gently blown and mixed to make the final concentrations of the antibodies to 20, 6.67, 2.22, 0.74, 0.247, 0.08, 0.027 and 0 nM, respectively followed by incubation at 4° C. for 30 min. […] After washing twice with the staining buffer, 100 μl/well of PE-streptavidin was added and incubated at 4° C. for 30 min. After additional washing with the staining buffer twice, 150 μl resuspended cells was analyzed using an flow cytometry. Taking the logarithmic value of the antibody concentrations as abscissa and the corresponding MFI value as ordinate, the inhibition curve of the antibody was drawn, and the IC50 value was calculated by four parameters fitting.
This is another data set of the same source.

The target is the same in experiment [7]. The experiment is described as follows: flow cytometry, blocking of TNFα-biotin on CHO-TNFR2 cells; AUC for 002# / AUC for antibody x 100. As to the method:
as §2, §3

For experiment [8], the target named is T1, Human TNFR2 recombinant protein (Sino …). The experiment is described as follows: SPR Biacore, antibody on Protein A chip, TNFR2 analyte. As to the method:
(§4) In this experiment, Protein A chip was used, and the time required for the chip to capture the diluted antibody was determined by manual run, so that the Rmax of the saturated binding antigen was 50 RU. Human TNFR2 (Sino 10417-H08H) and cynomolgus TNFR2 (Sino 90102-C08H) were diluted to 32, 16, 8, 4, 2 nM. The affinity of antibody and antigen was measured by multi-cycle kinetics. In each cycle, anti-TNFR2 antibodies were injected prior to the injection of gradient concentrations of TNFR2 protein allowing the occurrence of antibody-antigen association and dissociation. After each cycle, the Protein A chip was regenerated with Glycine pH1.5 (to remove the protein on the chip). BIAcore T200 analysis software was used to calculate the affinity KD of antibody binding to antigen.
Background: In SPR one partner is held on a chip, and binding of the other changes the refractive index at the surface.

The target of experiment [9] is T2, cynomolgus TNFR2 (Sino 90102-C08H). The description is as above. As to the method: as §4

B1: TNFR2 antibody #088 (antibody, V domains shown)
VH: EVQLQESGGGLVQPGGSLNLSCAASGFAFSTYDLSWVRQTPGKRLEWVAYINNGGISTYYSDTVKGRFTITRDNAKNTLYLQMSSLKSEDTAMYYCVRGPFYGSANYFDYWGQGTTVTVSS
VL: DILMTQSPASLSLFVGETVTITCRASENIYSNLAWYQQKQGKSPQLLVYDATKLAEGVPSRFSGSESGTQYSLKINSLQSEDFGTYYCQHFWVTPWTFGGGTKLEIK
With B1, the “ELISA OD” value in [1] came out at 1.31 OD. Also, in experiment [2], the “ELISA OD” value is 1.44 OD. In addition, the “ELISA OD of antibodies to be tested (20 nM)” value (“ELISA OD of antibodies” for short) in experiment [3] is 0.35 OD. In addition, the “Antibody AUC” value in experiment [4] was found to be 24300. In experiment [5], the “% to 002# OD (2 nM)” value amounted to 69.3% and the “% to 002# OD (20 nM)” value stood at 94.1%. The IC50 (in general, the concentration that gives 50% inhibition) in experiment [6] came out at 0.185 mg/L. Besides, the AUC % in [7] is 75.4%. For the same molecule, in experiment [8], the dissociation constant (Kd) (as a rule, the equilibrium constant for the complex coming apart) was determined as 0.107 nM; the koff (commonly a measure of how fast the partners let go of each other) amounted to 5.46e-05 s⁻¹; the on-rate constant (kon) – broadly, the second-order rate constant of association – came to 510000 M⁻¹ s⁻¹. In experiment [9], this molecule registered a Kd of 0.286 nM, a koff of 0.000172 s⁻¹ and a kon of 601000 M⁻¹ s⁻¹.

B2: TNFR2 antibody #352 (antibody, V domains shown)
VH: EVQLQESGPGLVAPSQSLSITCTVSGFSLTSYGVHWVRQPPGKGLEWLVVIWSDGGTTYNSALKSRLSISKDNSKSQVFLKMNSLQTDDTAMYYCARHDDDGYYAMDYWGQGTTVTVSS
VL: DIVLTQSPSLMSASPGEKVTMTCSASSSVGYMYWYQQKPRSSPKPWIYLTSNLASGVPARFSGSGSGTSYSLTISSMEVEDAATYYCQQWSSDPFTFGSGTKLEIK
Turning to B2, in experiment [3], the “ELISA OD of antibodies” value is 0.474 OD. The “Antibody AUC” value in experiment [4] is 10700. In [5], the “% to 002# OD (2 nM)” value was found to be 88.2% and the “% to 002# OD (20 nM)” value stood at 106%. Besides, in experiment [6], inhibition was half-maximal at 0.056 mg/L (IC50). Also, the AUC % in experiment [7] came out at 116%. Moreover, in [8], the Kd came to 1.41 nM, the dissociation rate constant (koff) turned out to be 0.00225 s⁻¹ and the kon amounted to 1.59e+06 M⁻¹ s⁻¹. Further, in experiment [9], the Kd worked out at 0.943 nM, the koff is 0.00243 s⁻¹ and the on-rate (kon) was found to be 2.57e+06 M⁻¹ s⁻¹.

B3: TNFR2 antibody #365 (antibody, V domains shown)
VH: EVQLQESGPGLVQPSQSLSITCTVSGFSLTSYGVHWVRQSPGKGLEWLGLIWSDGSPDYSAAFISRLSINKDNSKSQVFFKMNSLQADDTAIYYCARNDDGGDYVMDYWGQGTTVTVSS
VL: EIVLTQSPALMSASPGEKVTMTCSASSSVSYMYWYQQKPRSSPKPWIYLTSNLASGVPARFSGSGSGTSYSLTISSMEAEDAATYYCQQWTSNPLTFGAGTKLEIK
In the case of B3, the “ELISA OD of antibodies” value in [3] was 0.418 OD. Further, the “Antibody AUC” value in experiment [4] is 10600. For the same molecule, in [5], the “% to 002# OD (2 nM)” value came out at 124% and the “% to 002# OD (20 nM)” value stood at 120%. Moreover, it took 0.041 mg/L to reach half-maximal inhibition in experiment [6] (IC50). The AUC % in experiment [7] turned out to be 117%. Further, in [8], the equilibrium dissociation constant (Kd) was 0.952 nM, the koff was 0.00209 s⁻¹ and the kon stood at 2.2e+06 M⁻¹ s⁻¹. In experiment [9], this molecule registered a Kd of 0.752 nM, an off-rate constant (koff) of 0.00308 s⁻¹ and a kon of 4.1e+06 M⁻¹ s⁻¹.

B4: TNFR2 antibody #395 (antibody, V domains shown)
VH: EVQLQESGPVLVQPSQSLSITCTVSGFSLTSYSVHWVRQSPGKGLEWLGVIWSDGGTDYSAAFISRLSISKDNSKSQVFFKMNSLQADDTAIYYCARNDDGGDYAMDYWGQGTTVTVSS
VL: EIVLTQSPALMSASPGEKVTMTCSASSSVSYMYWYQQKPRSSPKPWIYLTSNLASGVPARFSGSGSGTSYSLTISSMEAEDAATYYCQQWSSNPLTFGAGTKLEIK
For the molecule B4, the “ELISA OD of antibodies” value in experiment [3] stood at 0.282 OD. Further, the “Antibody AUC” value in experiment [4] was 14900. In experiment [5], the “% to 002# OD (2 nM)” value was found to be 138% and the “% to 002# OD (20 nM)” value is 178%. In addition, in [6], the 50% inhibitory concentration (IC50) worked out at 0.021 mg/L. The AUC % in experiment [7] worked out at 107%. Moreover, in experiment [8], the dissociation constant (Kd) was found to be 0.14 nM, the koff came to 0.000237 s⁻¹ and the kon came out at 1.7e+06 M⁻¹ s⁻¹. Further, in [9], the affinity, expressed as Kd, was 0.0977 nM; the koff is 0.000276 s⁻¹; the kon was 2.83e+06 M⁻¹ s⁻¹.

B5: TNFR2 antibody #309 (antibody, V domains shown)
VH: EVQLQESGAELVKPGASVKLSCKASGYTFTSYWIHWVKLRPGQGFEWIGEINPNNGGTDYNEKFKRKATLTVDKSSSTAYMELSSLTSEDSAIYYCTIDSMITTTWFAYWGQGTTVTVSS
VL: EIVMTQSQKLMSTVVGDRVSVTCKASQNVGTNVAWFQQKPGQSPKALINSASYRYSGVPDRFTGSGSGTDFTLTISSVQSEDLAEYFCQQYNSYPFTFGSGTKLEIK
Consider B5, for which the “ELISA OD” value in [1] is 1.9 OD. Further, the “ELISA OD” value in [2] was found to be 2.27 OD. Further, the “ELISA OD of antibodies” value in experiment [3] stood at 0.34 OD. In addition, the “Antibody AUC” value in [4] stood at 27800. Further, in [5], the “% to 002# OD (2 nM)” value is 75.9% and the “% to 002# OD (20 nM)” value was 96.6%. This molecule gave an IC50 in [6] of 0.116 mg/L. In addition, the AUC % in experiment [7] turned out to be 92.4%. Moreover, in [8], the Kd stood at 1.44 nM, the koff turned out to be 0.000748 s⁻¹ and the association rate constant (kon) was 519000 M⁻¹ s⁻¹. In addition, in [9], binding was put at a Kd of 2.48 nM, the off-rate constant (koff) amounted to 0.00212 s⁻¹ and the kon amounted to 854000 M⁻¹ s⁻¹.
